Data: publication PMC2409314, “Expression of zebrafish pax6b in pancreas is regulated by two enhancers containing highly conserved cis-elements bound by PDX1, PBX and PREP factors”

Legend:
Assay in all cases: EMSA; 2 ug nuclear extract or 1 ul ivt protein, 0.1 ng 32P ds oligo, 1 ug poly(dI-dC); antiserum preincubation 15 min at room temperature; buffer, salt and pH not given (by reference)
[1] = target: T1, PBX1a (long isoform);PREP1 (;, UniProt P41778;P55347 1-430;1-436, |); settings: protein: ivt;ivt; tags: ;; copies: 1;1; label: 32P (Klenow); only top strand given; 5' GATC end, Klenow labelled
T1 sequence 1: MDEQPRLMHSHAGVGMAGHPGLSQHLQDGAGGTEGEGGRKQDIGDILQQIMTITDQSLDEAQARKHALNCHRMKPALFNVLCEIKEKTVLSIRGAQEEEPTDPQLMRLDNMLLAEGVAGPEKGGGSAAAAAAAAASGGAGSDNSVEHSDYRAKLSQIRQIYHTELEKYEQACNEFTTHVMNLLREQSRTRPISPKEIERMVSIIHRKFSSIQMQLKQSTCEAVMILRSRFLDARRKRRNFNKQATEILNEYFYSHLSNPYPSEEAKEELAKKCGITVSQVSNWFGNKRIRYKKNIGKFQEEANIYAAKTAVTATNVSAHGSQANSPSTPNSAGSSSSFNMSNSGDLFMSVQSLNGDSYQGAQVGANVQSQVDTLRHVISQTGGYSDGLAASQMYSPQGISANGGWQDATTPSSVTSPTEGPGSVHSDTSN
T1 sequence 2: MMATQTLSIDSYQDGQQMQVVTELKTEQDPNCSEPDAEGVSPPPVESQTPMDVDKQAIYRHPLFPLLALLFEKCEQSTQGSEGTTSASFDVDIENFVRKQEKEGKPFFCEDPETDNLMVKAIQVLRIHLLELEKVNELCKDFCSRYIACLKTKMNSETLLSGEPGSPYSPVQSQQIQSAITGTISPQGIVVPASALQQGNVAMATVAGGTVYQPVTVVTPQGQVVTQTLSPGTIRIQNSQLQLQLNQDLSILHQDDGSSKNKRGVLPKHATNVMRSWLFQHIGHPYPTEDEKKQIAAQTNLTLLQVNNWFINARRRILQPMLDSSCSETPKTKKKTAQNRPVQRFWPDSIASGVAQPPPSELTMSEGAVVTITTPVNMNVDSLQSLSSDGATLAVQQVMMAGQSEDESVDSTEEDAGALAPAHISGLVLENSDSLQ

[2] = target: PBX1a (long isoform);PREP1;PDX1 (STF-1) (;;, UniProt P41778;P55347;P52947 1-430;1-436;1-283, ||); settings: protein: ivt;ivt;recombinant; tags: ;;; copies: 1;1;1; label: 32P (Klenow); only top strand given; 5' GATC end, Klenow labelled
[3] = target: PDX1 (STF-1) (UniProt P52947 1-283); settings: protein: recombinant; label: 32P (Klenow); only top strand given; 5' GATC end, Klenow labelled
PDX1 (STF-1), sequence (P52947 whole entry): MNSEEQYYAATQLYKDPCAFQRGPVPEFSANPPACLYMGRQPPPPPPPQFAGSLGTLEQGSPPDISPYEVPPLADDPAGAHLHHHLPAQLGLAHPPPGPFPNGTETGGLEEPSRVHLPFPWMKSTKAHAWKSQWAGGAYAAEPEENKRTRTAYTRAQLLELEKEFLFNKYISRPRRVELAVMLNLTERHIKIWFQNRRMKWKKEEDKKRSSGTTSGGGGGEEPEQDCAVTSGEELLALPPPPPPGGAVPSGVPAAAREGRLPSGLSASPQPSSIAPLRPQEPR

PBX1a (long isoform);PREP1;PDX1 (STF-1), sequence (P52947 whole entry, canonical isoform, one chain of several): as the sequence (P52947 whole entry) above

B1: PA1b (dsDNA)
DNA 1: GATCGCATCACGATCAATCACAGCGCT
DNA 2: AGCGCTGTGATTGATCGTGATGCGATC
- binding result [1]: binds
- binding result [2]: binds

B2: PC3b (dsDNA)
DNA 1: GATCTAGCTCTTAATTGTGGTT
DNA 2: AACCACAATTAAGAGCTAGATC
- binding result [3]: binds
